The text below walks through data of publication PMC3426363 (Pharmaceutical research, 2011).

Type in all cases: in vitro ADME, human
Substrate in series [1]: O=c1c(O)c(-c2ccc(O)cc2)oc2cc(O)cc(O)c12
The experiment in a line: UGT1A9 glucuronidation kinetics of flavonols. The following applies: other: UGT1A9, pH 6.5.

Substrate in series [2]: O=c1c(O)c(-c2ccc(O)cc2)oc2cc(O)ccc12
The experiment in a line: UGT1A9 glucuronidation kinetics of flavonols. The following applies: other: UGT1A9, pH 6.5.

Substrate in series [3]: O=c1c(O)c(-c2ccccc2)oc2cc(O)ccc12
The experiment in a line: UGT1A9 glucuronidation kinetics of flavonols. The conditions noted are these: other: UGT1A9, pH 6.5.

Substrate in series [4]: O=c1c(O)c(-c2ccc(O)cc2)oc2cc(O)cc(O)c12
The experiment in a line: UGT1A10 glucuronidation kinetics of flavonols. The following applies: other: UGT1A10, pH 6.5.

Substrate in series [5]: O=c1c(O)c(-c2ccccc2)oc2cc(O)cc(O)c12
The experiment in a line: UGT1A10 glucuronidation kinetics of flavonols. The following applies: other: UGT1A10, pH 6.5.

Substrate in series [6]: O=c1c(O)c(-c2ccccc2)oc2cc(O)ccc12
The experiment in a line: UGT1A10 glucuronidation kinetics of flavonols. The conditions noted are these: other: UGT1A10, pH 6.5.

As a reminder, the Km is the concentration of substrate that gives half-maximal velocity. In general, Vmax refers to the rate approached at saturating substrate.

B1: UGT1A9 (Homo sapiens) (protein)
chain: GKLLVVPMDGSHWFTMRSVVEKLILRGHEVVVVMPEVSWQLGRSLNCTVKTYSTSYTLEDLDREFKAFAHAQWKAQVRSIYSLLMGSYNDIFDLFFSNCRSLFKDKKLVEYLKESSFDAVFLDPFDNCGLIVAKYFSLPSVVFARGILCHYLEEGAQCPAPLSYVPRILLGFSDAMTFKERVRNHIMHLEEHLLCHRFFKNALEIASEILQTPVTEYDLYSHTSIWLLRTDFVLDYPKPVMPNMIFIGGINCHQGKPLPMEFEAYINASGEHGIVVFSLGSMVSEIPEKKAMAIADALGKIPQTVLWRYTGTRPSNLANNTILVKWLPQNDLLGHPMTRAFITHAGSHGVYESICNGVPMVMMPLFGDQMDNAKRMETKGAGVTLNVLEMTSEDLENALKAVINDKSYKENIMRLSSLHKDRPVEPLDLAVFWVEFVMRHKGAPHLRPAAHDLTWYQYHSLDVIGFLLAVVLTVAFITFKCCAYGYRKCLGKKGRVKKAHKSKTH
Consider B1, for which the Km in series [1] (formation of 3-O-glucuronide) is given as 0.32 ± 0.03 µM; in series [1] (formation of 7-O-glucuronide) it was 3.87 ± 0.59 µM; in series [2] (formation of 3-O-glucuronide), 0.36 ± 0.03 µM; in series [2] (formation of 7-O-glucuronide), 2.67 ± 0.56 µM; in series [3] (formation of 3-O-glucuronide), 0.22 ± 0.04 µM; in series [3] (formation of 7-O-glucuronide), 1.50 ± 0.26 µM. The maximum rate (Vmax) in series [1] (formation of 3-O-glucuronide) is recorded as 1.92 ± 0.03 nmol/mg/min; in series [1] (formation of 7-O-glucuronide), 0.87 ± 0.05 nmol/mg/min; in series [2] (formation of 3-O-glucuronide) it was 2.62 ± 0.05 nmol/mg/min; in series [2] (formation of 7-O-glucuronide), 1.15 ± 0.08 nmol/mg/min; in series [3] (formation of 3-O-glucuronide) it was 4.60 ± 0.28 nmol/mg/min; in series [3] (formation of 7-O-glucuronide) it was 2.04 ± 0.09 nmol/mg/min. In addition, the Vmax/Km was 6000 µL/min/mg in series [1] (formation of 3-O-glucuronide); 220 µL/min/mg in series [1] (formation of 7-O-glucuronide); 7280 µL/min/mg in series [2] (formation of 3-O-glucuronide); 430 µL/min/mg in series [2] (formation of 7-O-glucuronide); 20910 µL/min/mg in series [3] (formation of 3-O-glucuronide); 1360 µL/min/mg in series [3] (formation of 7-O-glucuronide).

B2: UGT1A10 (Homo sapiens) (protein)
chain: GKLLVVPMDGSHWFTMQSVVEKLILRGHEVVVVMPEVSWQLERSLNCTVKTYSTSYTLEDQNREFMVFAHAQWKAQAQSIFSLLMSSSSGFLDLFFSHCRSLFNDRKLVEYLKESSFDAVFLDPFDTCGLIVAKYFSLPSVVFTRGIFCHHLEEGAQCPAPLSYVPNDLLGFSDAMTFKERVWNHIVHLEDHLFCQYLFRNALEIASEILQTPVTAYDLYSHTSIWLLRTDFVLDYPKPVMPNMIFIGGINCHQGKPLPMEFEAYINASGEHGIVVFSLGSMVSEIPEKKAMAIADALGKIPQTVLWRYTGTRPSNLANNTILVKWLPQNDLLGHPMTRAFITHAGSHGVYESICNGVPMVMMPLFGDQMDNAKRMETKGAGVTLNVLEMTSEDLENALKAVINDKSYKENIMRLSSLHKDRPVEPLDLAVFWVEFVMRHKGAPHLRPAAHDLTWYQYHSLDVIGFLLAVVLTVAFITFKCCAYGYRKCLGKKGRVKKAHKSKTH
Turning to B2, the Km in series [4] (formation of 3-O-glucuronide) was 2.44 ± 0.55 µM; in series [4] (formation of 7-O-glucuronide), 3.34 ± 1.21 µM; in series [5] (formation of 3-O-glucuronide) it was 4.49 ± 0.61 µM; in series [5] (formation of 7-O-glucuronide), 3.96 ± 0.58 µM; in series [6] (formation of 3-O-glucuronide), 6.66 ± 0.66 µM; in series [6] (formation of 7-O-glucuronide), 8.74 ± 1.37 µM. For the same protein, the Vmax in series [4] (formation of 3-O-glucuronide) worked out at 1.46 ± 0.16 nmol/mg/min; in series [4] (formation of 7-O-glucuronide), 1.10 ± 0.20 nmol/mg/min; in series [5] (formation of 3-O-glucuronide) it was 2.01 ± 0.14 nmol/mg/min; in series [5] (formation of 7-O-glucuronide), 0.77 ± 0.04 nmol/mg/min; in series [6] (formation of 3-O-glucuronide) it was 0.19 ± 0.01 nmol/mg/min; in series [6] (formation of 7-O-glucuronide), 0.26 ± 0.02 nmol/mg/min. Besides, the Vmax/Km in series [4] (formation of 3-O-glucuronide) is 600 µL/min/mg; in series [4] (formation of 7-O-glucuronide), 330 µL/min/mg; in series [5] (formation of 3-O-glucuronide), 450 µL/min/mg; in series [5] (formation of 7-O-glucuronide), 190 µL/min/mg; in series [6] (formation of 3-O-glucuronide), 30 µL/min/mg; in series [6] (formation of 7-O-glucuronide), 30 µL/min/mg.
